Data set [1] in a line: Particle size and polydispersity by dynamic light scattering (DLS). In kind it is physicochemical. The settings on record: Zetasizer Nano ZSP, n = 3, mean ± standard deviation; for Diameter: lactosomes in saline. How it is done:
(§1) A chloroform solution containing the (PSar25)3-block-PLLA35 (100 nmol, […]) with 4 mol% of TPP (Wako Pure Chemical, Osaka, Japan), 2 mol% of ICG-PLLA34, and 10 mol% maleimide-PSar56-PLLA30 was evaporated under reduced pressure to remove the solvent, forming a thin film on the surface of the glass test tube. Saline (Otsuka normal saline, Otsuka Pharmaceutical Factory, Tokushima, Japan) (50 μl) was added to the test tube, which was then placed at room temperature for 5 min. Then, 50 μl of the saline solution containing 50 nmol CPP and 10 nmol Tris(2-carboxyethyl)phosphine hydrochloride (Nacalai Tesque, Kyoto, Japan) was added to the solution (50 μl) in the test tube and stirred for 12 h at room temperature. In this procedure, lactosome formation and TPP encapsulation by the lactosome were expected. At the same time, maleimide-PSar56-PLLA30 in the lactosome is expected to react with CPP, which contains a cysteine residue at its C-terminus (Table 1). This lactosome mixture was diluted with 400 μl of saline, and passed through a 0.1 μm syringe filter (Membrane Solutions, Dallas, USA) to remove large aggregates. Low molecular weight molecules were excluded from the mixture using Amicon Ultra-0.5 (MWCO 50 kDa, Merck Millipore, Darmstadt, Germany). To analyze concentrations of CPP, TPP and ICG-PLLA34, absorption spectra of the lactosome complexes were measured using a BioSpec spectrometer (Shimadzu, Kyoto, Japan). The particle size, size distribution, polydispersity index (PDI), and zeta potential were measured by Zetasizer Nano ZSP (Malvern Instruments, Malvern, UK).
(§2) The particle sizes of lactosome complexes were measured by dynamic light scattering (DLS). The average particle sizes of the CPP-modified lactosomes were 36–49 nm, which were slightly larger than the unmodified lactosomes (34.2 nm) (Table 2, Figure 1(b)). The zeta potential value of CPP-modified lactosomes (e.g. Pep1-modified lactosome: 1.7 mV, EB1-modified lactosome: 1.6 mV) was higher than that of the unmodified lactosomes (–4.6 mV) (Table 2). The increase in the zeta potential seems to be due to positively charged CPPs.

Data set [2] in a line: Zeta potential by laser Doppler electrophoresis. Type of data set: physicochemical. The settings on record: Zetasizer Nano ZSP, n = 3, mean ± standard deviation. How it is done: as §1, §2
In the next data set the test system is CHO cells. Kind of data set: Cellular uptake of ICG-labeled CPP-modified lactosomes. In kind it is cell-based, Chinese hamster. The settings on record: for Cellular uptake level (in words): 10 nmol lactosome complexes, ICG fluorescence intensity divided by cell viability; for Cellular localization (co-localization with LysoTracker Green): 2 μM LysoTracker Green, further 3 h incubation; for ICG fluorescence in cells by fluorescence microscopy, compared to lactosomes without CPP: after washing. How it is done: CHO cells were cultured at 37°C under 5% CO2 in Ham’s F12 medium (Wako Pure Chemical) supplemented with 10% fetal bovine serum (FBS, Nichirei Biosciences, Tokyo Japan), 100 units ml^–1 penicillin (Gibco; Thermo Fisher Scientific, Waltham, Massachusetts, USA), and 100 μg ml^–1 streptomycin (Gibco; Thermo Fisher Scientific). The cells were seeded at a density of 2 × 10^4 cells/well in the 96-well plate, and incubated at 37°C under 5% CO2 overnight. The cells were then incubated at 37°C for 2 h with ICG-labeled lactosomes modified with CPPs (Tat, PTD4, DPV3, MPG^ΔNLS, R9MPG, Pep1, or EB1) dissolved in 200 μl T buffer. The lactosome solution was exchanged for Ham’s F12 medium before the fluorescence imaging. The cellular fluorescence images were obtained by fluorescence microscopy using an Olympus IX71 microscope (Olympus, Tokyo, Japan) with a 40 × objective lens and a U-DM-CY7–3 mirror unit.
LysoTracker Green (Thermo Fisher Scientific) was used for investigating cellular localization of CPP-modified lactosomes. After incubation of the cells with CPP-modified ICG-labeled lactosomes, the lactosome solution was exchanged with Ham’s F12 medium containing 2 μM LysoTracker Green. The cells were further incubated for 3 h. Then, the cell medium was replaced with Ham’s F12 medium, and fluorescence images were obtained.
To evaluate the cellular uptake of the lactosome complexes, the ICG fluorescence images were obtained using an IVIS spectrum system (Xenogen, Hopkinton, Massachusetts USA) with a filter set specific for ICG (excitation at 745 nm and emission at 840 ± 10 nm). The ICG fluorescence intensity was estimated from the photon counts of the images. Then, the cell medium was replaced with solution containing 10 μl of Cell Counting Kit-8 solution (Dojindo, Kumamoto, Japan) and 90 μl of Ham’s F12 medium, and the cells were incubated for an additional 1.5 h. After incubation, the cell viability was measured by absorbance at 450 nm using the microplate reader SunriseR (Tecan Japan, Kanagawa, Japan). Lactosome uptake levels were calculated by dividing ICG fluorescence intensity by cell viability of each well.

Another data set deals with NCI-N87 cells. Kind of data set: Photoinduced cell killing (PDT treatment) with CPP/TPP-lactosomes, Cell Counting Kit-8. Type of data set: cell-based, human. The settings on record: 1.5 h at 37°C in T buffer, irradiation 340–390 nm, 200 mW cm^–2, 100 s, then 24 h culture, n = 3. How it is done:
NCI-N87 cells were cultured at 37°C under 5% CO2 in RPMI1640 medium (Wako Pure Chemical) supplemented with 10% FBS, 100 units ml^–1 penicillin, and 100 μg ml^–1 streptomycin. NCI-N87 cells were seeded at a density of 4 × 10^4 cells/well in a 96-well plate, and incubated at 37°C for two days before treatment with the lactosome complex. CHO cells were cultured and seeded as described above. The effect of treatment with the TPP-loaded lactosomes and light on cell viability, which is related to PDT efficacy, was evaluated as follows: TPP-loaded lactosomes modified with CPPs (Pep1 or EB1) dissolved in 200 μl of T buffer (20 mM HEPES-KOH (pH 7.4), 115 mM NaCl, 5.4 mM KCl, 1.8 mM CaCl2, 0.8 mM MgCl2, and 13.8 mM glucose) were added to NCI-N87 cells (70% confluent) in the 96-well plate. The cells were incubated at 37°C for 1.5 h. After the lactosome solution was exchanged for T buffer, the cells were irradiated at 340–390 nm at 200 mW cm^–2 for 100 s. After irradiation, the cells were further incubated for 24 h at 37°C under 5% CO2 in the medium. Then, the cell medium was exchanged for the solution containing 10 μl of Cell Counting Kit-8 solution and 90 μl of RPMI1640 medium, and the cells were incubated at 37°C for 2 h. The cell viability was measured by the absorbance at 450 nm using a microplate reader SunriseR. […]

The subject of the next data set is NCI-N87 tumor. Kind of data set: In vivo ICG fluorescence imaging of tumor-bearing mice. The conditions noted are these: tail vein injection, imaging 24 h after injection, IVIS; three mice. Also on record: species or system mice (BALB/c nu/nu). On the procedure: (§3) Six-week-old male nude mice (BALB/c nu/nu) were purchased from Charles River. Five weeks before the imaging, PANC-1 cells (1 × 10^7) suspended in 100 μl of 50% Matrigel Matrix (Corning Life Sciences, Corning, New York USA) in phosphate buffered saline was subcutaneously inoculated into the front left leg of mice. Two weeks after the first transplantation, NCI-N87 cells (4 × 10^6) were suspended in the Matrigel solution and subcutaneously inoculated into the front right leg of mice. Three weeks after the second transplantation, CPP/TPP/ICG-lactosomes were injected into the tumor-bearing mouse via the tail vein. After 24 h, ICG fluorescence images were taken using the IVIS spectrum system (excitation at 745 nm and emission at 840 ± 10 nm, field of view = 12.5 cm (width and height), f/stop = 2, binning = 4, and exposure time at 3 s). During the imaging process, the mice were anesthetized using 3.0% isoflurane gas in oxygen flow (0.5 l min^–1).

A further data set relates to PANC-1 tumor. The description is as above. Also on record: species or system mice (BALB/c nu/nu). The settings on record: tail vein injection, imaging 24 h after injection, IVIS; three mice. How it is done: as §3

No end group written: not given here.

For the substance “GALFLGFLGAAGSTMGAWSQPKSKRKV-C [MPG^ΔNLS, A3B-type lactosome modified with the CPP MPG^ΔNLS via maleimide-PSar56-PLLA30]”, in data set [1], the Diameter is 49.1±0.5 nm and the “PDI (polydispersity index)” value stood at 0.29±0.02. In addition, the Zeta potential in data set [2] is given as −2.9±0.6 mV.

As to “KETWWETWWTEWSQPKKKRKV-C [Pep1, A3B-type lactosome modified with the CPP Pep1 via maleimide-PSar56-PLLA30]”, in data set [1], the Diameter is given as 37.7±0.6 nm and the “PDI (polydispersity index)” value was determined as 0.13±0.02. In addition, the “Cellular uptake level relative to the EB1-modified lactosomes” value in the data set on CHO cells (10 nmol lactosome complexes in T buffer, 2 h, 37°C, ICG fluorescence intensity (IVIS, ex 745 nm, em 840 nm) divided by cell viability (Cell Counting Kit-8), mean, n = 4) is reported as 0.62. In the data set with CHO cells (2 h, 37°C), the “Cellular uptake level (in words)” value was “highly internalized” and the “ICG fluorescence in cells by fluorescence microscopy, compared to lactosomes without CPP” value was “significantly strong ICG fluorescence”. Moreover, in the data set with CHO cells, the “Cellular localization (co-localization with LysoTracker Green)” value is “localized mainly in acidic organelles, including endosomes and lysosomes”. The same substance showed a Zeta potential in data set [2] of 1.7±0.1 mV.

Consider “KETWWETWWTEWSQPKKKRKV-C [Pep1/TPP-lactosomes, Pep1-modified lactosome loaded with the photosensitizer TPP]”, for which the “Killing of NCI-N87 cells compared to the experiment without CPP/TPP-lactosomes” value in the data set on NCI-N87 cells is on record as 67%.

For the substance “LIRLWSHLIHIWFQNRRLKWKKK-C (LIRLWSHLIHIWFQNRRLKWKKKC; also: C-terminal Cys linked via maleimide to PSar56-PLLA30 (lactosome)) [EB1, A3B-type lactosome modified with the CPP EB1 via maleimide-PSar56-PLLA30]”, in data set [1], the Diameter is recorded as 38.3±0.2 nm and the “PDI (polydispersity index)” value amounted to 0.12±0.01. In the data set with CHO cells (2 h, 37°C), the “Cellular uptake level (in words)” value is on record as “most abundantly internalized” and the “ICG fluorescence in cells by fluorescence microscopy, compared to lactosomes without CPP” value is “significantly strong ICG fluorescence”. Also, the “Cellular localization (co-localization with LysoTracker Green)” value in the data set with CHO cells was “localized mainly in acidic organelles, including endosomes and lysosomes”. The Zeta potential in data set [2] was determined as 1.6±0.3 mV.

Consider “LIRLWSHLIHIWFQNRRLKWKKK-C [EB1/TPP-lactosomes, EB1-modified lactosome loaded with the photosensitizer TPP]”, for which the “Killing of NCI-N87 cells compared to the experiment without CPP/TPP-lactosomes” value with NCI-N87 cells amounted to 89%.

For the substance “LIRLWSHLIHIWFQNRRLKWKKK-C [EB1/TPP/ICG-lactosomes, lactosome complex containing EB1, TPP, and ICG]”, the “Accumulation in NCI-N87 tumor (ICG fluorescence)” value in the data set on NCI-N87 tumor is “accumulated in NCI-N87 tumors and liver”. Also, the “Accumulation in PANC-1 tumor (ICG fluorescence)” value with PANC-1 tumor was “only slight ICG fluorescence was detected”.

Turning to “RKKRRRESRKKRRRES-C (RKKRRRESRKKRRRESC; also: C-terminal Cys linked via maleimide to PSar56-PLLA30 (lactosome)) [DPV3, A3B-type lactosome modified with the CPP DPV3 via maleimide-PSar56-PLLA30]”, in data set [1], the Diameter stood at 37.0±0.4 nm and the “PDI (polydispersity index)” value came out at 0.12±0.01. This substance came in with a Zeta potential in data set [2] of −3.7±0.3 mV.

Turning to “RRRRRRRRRGALFLAFLAAALSLMG-C (RRRRRRRRRGALFLAFLAAALSLMGC; also: C-terminal Cys linked via maleimide to PSar56-PLLA30 (lactosome)) [R9MPG, A3B-type lactosome modified with the CPP R9MPG via maleimide-PSar56-PLLA30]”, in data set [1], the Diameter was found to be 43.9±1.5 nm and the “PDI (polydispersity index)” value is recorded as 0.22±0.01. Also, in data set [2], the Zeta potential is listed as −2.7±0.9 mV.

On to “YARAAARQARA-C [PTD4, A3B-type lactosome modified with the CPP PTD4 via maleimide-PSar56-PLLA30]”, for which, in data set [1], the Diameter is listed as 37.0±0.4 nm and the “PDI (polydispersity index)” value turned out to be 0.14±0.02. The Zeta potential in data set [2] is −4.2±0.3 mV.

In the case of “YGRKKRRQRRR-C [Tat, A3B-type lactosome modified with the CPP Tat via maleimide-PSar56-PLLA30]”, in data set [1], the Diameter was 36.2±0.3 nm and the “PDI (polydispersity index)” value worked out at 0.10±0.01. The substance further registered a Zeta potential in data set [2] of −3.6±0.1 mV.

Source of the values: paper PMC5101896, “Enhanced cellular uptake of lactosomes using cell-penetrating peptides” (Science and Technology of Advanced Materials, 2016).
